From paper PMC5173319 (2016) come the findings set out here.

For experiment [1], the target named is T1, Pyrobaculum calidifontis crenactin (Pyrobaculum calidifontis, UniProt A3MWN5 1-432). Kind of experiment: SPR; fast phase.
Experiment [2] has as its target T1, Pyrobaculum calidifontis crenactin. Kind of experiment: SPR; slow phase.
Experiment [3] has the same target. Put plainly: SPR; fast phase. The source holds these as a separate data set.
For experiment [4] the target is unchanged. Put plainly: SPR; slow phase. This is another data set of the same source.
Experiment [5] has the same target. Put plainly: SPR.
The target is the same in experiment [6]. Kind of experiment: SPR. This is another data set of the same source.

T1 sequence (A3MWN5 whole entry): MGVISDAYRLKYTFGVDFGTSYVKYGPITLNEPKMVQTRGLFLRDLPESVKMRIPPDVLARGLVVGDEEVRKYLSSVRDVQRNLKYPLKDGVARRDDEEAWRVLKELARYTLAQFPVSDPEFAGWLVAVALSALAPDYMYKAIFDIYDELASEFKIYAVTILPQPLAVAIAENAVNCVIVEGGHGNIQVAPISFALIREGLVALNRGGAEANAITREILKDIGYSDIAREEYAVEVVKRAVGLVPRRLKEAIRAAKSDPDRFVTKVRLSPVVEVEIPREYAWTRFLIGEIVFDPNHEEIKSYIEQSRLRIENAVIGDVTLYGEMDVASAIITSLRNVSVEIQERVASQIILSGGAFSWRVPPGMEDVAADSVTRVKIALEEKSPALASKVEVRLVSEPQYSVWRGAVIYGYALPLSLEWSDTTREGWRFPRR

B1: Pyrobaculum calidifontis arcadin-2 (natural protein)
chain: MDFPKVLLIRHFTEVLGMKYAGEGGEVLWFEEGLNRVAVGIYFTDLYEEAELYKRVGALMGLGASKVFLAVLPDALAFVDPRYFKANGVGLVVVDPAKGVDGVEVKIFARARPAAVEPLKIDAVKAALHEYLASELKRVEESLFEKVRRYVDQRVEEVKRALQAVEEAKRAAPPVQRAAAESAQEPRGGIGENEWVKILRSKR
Consider B1, for which the figures for the equilibrium dissociation constant (Kd) in experiment [1] and in experiment [2] were 24 nM and 59 nM, respectively. Also, the koff amounted to 0.019 s⁻¹ in experiment [3] and 0.0034 s⁻¹ in experiment [4].
Molecule RGGIGENEWVKILRSKR [arcadin-2 C-terminal peptide (residues 187-203)] had a Kd in experiment [5] of 9 nM. Further, the dissociation rate constant (koff) in experiment [6] was 0.019 s⁻¹.
